Tests used:
[1] = target: NIA–Isu1 complex with C. thermophilum Isu1 (S. cerevisiae | E. coli (endogenous in the expression host) | C. thermophilum) (UniProt P25374); assay: pull-down; competition: Yah1^GST (2.5 μM) with NIA (5 μM), with or without Isu1Sc or Isu1Ct (7.5 μM), then Yfh1 WT or DE/KK added (12.5 μM or increasing concentrations); glutathione resin; densitometry, amount without Yfh1 set as 100%; buffer PD
[2] = target: Yah1-GST fusion protein (S. cerevisiae) (UniProt Q12184); assay: pull-down; GST-tagged Yah1 bait (2.5 μM) incubated with NIA (5 μM or increasing) and/or Isu1 (7.5 μM) in buffer PD (40 mM Hepes–KOH pH 7.5, 5% glycerol, 100 mM KCl, 1 mM DTT, 10 mM MgCl2) 15 min at 25 °C; glutathione agarose 1 h at 4 °C; SDS-PAGE, InstantBlue, densitometry corrected for binding to GST; aerobic (Yah1 cluster oxidised)
Sequence of Yah1-GST fusion protein (S. cerevisiae) (Q12184 17-172): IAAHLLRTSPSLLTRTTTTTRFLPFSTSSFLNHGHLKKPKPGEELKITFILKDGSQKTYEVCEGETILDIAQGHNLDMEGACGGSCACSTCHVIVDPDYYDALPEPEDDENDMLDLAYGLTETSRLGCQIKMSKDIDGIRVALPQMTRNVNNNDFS

Row | percent of the control left pulled down with Yah1^GST at 5 μM Yfh1 [1] [%] | percent reduction of Nfs1, Isd11 and Isu1 pulled down with Yah1^GST at a fivefold excess of Yfh1 (12.5 μM) [1] [%] | binding as percent of the WT control [2] [%] | Substance
1 | 30 | 85 | – | Yfh1 (frataxin) with a C-terminal polyhistidine tag (from UniProt Q07540 52-174) (natural protein)
2 | – | – | 20 | NIA–Isu1 complex containing Nfs1(R313E, R316E, R318E), with Isu1Ct (from UniProt P25374 37-497; Q6Q560 1-94; P0A6A8 1-78)
3 | – | – | 30 | NIA–Isu1 complex containing Nfs1(R313A, R316A, R318A), with Isu1Ct (from UniProt P25374 37-497; Q6Q560 1-94; P0A6A8 1-78)

Reference: publication PMC8888459
